Results: patent publication US20240228562A1 (Pieris, published 2024)
One block for each binder: values may come before it.

How the values were obtained:
[1] = target: T1, recombinant human CTGF-Fc protein (Creative Biomart) (human); assay: SPR (Biacore)
T1 construct: Bought; also called human CTGF with a human IgG1 Fc Tag
Procedure, shortened: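 Lipocalin muteins injected at 25 °C over CTGF either Fc-tagged and captured by anti-human IgG-Fc (0.25-2.5 μg/mL in HBS-EP+, 180 s) or amine-coupled directly to a CM5 chip. Association 180 s, dissociation 900-3600 s, flow 30 μL/min.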

[2] = target: T2, recombinant rat CTGF protein (R&D Systems) (rat, UniProt Q9R1E9 25-347); assay: SPR (Biacore); B = binding without determination of kinetics constants
T2 construct: Bought; also called rCTGF
T2 sequence: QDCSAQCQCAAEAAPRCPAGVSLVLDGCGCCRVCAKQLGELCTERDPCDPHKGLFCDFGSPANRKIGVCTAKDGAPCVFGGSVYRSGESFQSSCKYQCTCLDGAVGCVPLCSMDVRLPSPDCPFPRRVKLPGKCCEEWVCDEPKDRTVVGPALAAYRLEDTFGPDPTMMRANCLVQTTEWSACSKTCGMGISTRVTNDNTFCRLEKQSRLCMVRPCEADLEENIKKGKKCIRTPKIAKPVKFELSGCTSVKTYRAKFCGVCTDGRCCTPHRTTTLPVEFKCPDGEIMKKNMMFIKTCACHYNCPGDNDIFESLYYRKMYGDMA
Method: The binding of exemplary lipocalin muteins to human (Creative Biomart), cynomolgus, rat (R&D Systems) and mouse CTGF (Abbexa) was determined by SPR using a Biacore instrument (Cytiva, formerly GE Healthcare). Some targets were fused to a human IgG1 Fc tag, and captured via the anti-human IgG antibody kit, others were directly immobilized.
For some measurements, human CTGF with a human IgG1 Fc Tag or rat or murine CTGF without a tag were directly immobilized to a CM5 Chip. The carboxyl groups on the chip were activated using 1-ethyl-3-(3-dimethylaminopropyl)-carbodiimide (EDC) and N-hydroxysuccinimide (NHS). […] Residual non-reacted NHS-esters were blocked by passing a solution of 1 M ethanolamine across the surface. The reference channel was activated/deactivated. For the capture setting, targets with an IgG Fc Tag at 0.25-2.5 μg/mL in HBS-EP+ buffer were captured by the anti-human IgG-Fc antibody at the chip surface for 180 s at a flow rate of 10 μL/min.
The binding assay was carried out with a contact time of 180 s, a dissociation time of 900-3600 s and a flow rate of 30 μL/min. All measurements were performed at 25° C. […] For the directly immobilized targets, the same regeneration conditions were used. Prior to the protein measurements, three startup cycles were performed for conditioning purposes.

huNOV = target: T3, huNOV (human, UniProt P48745 32-357, limits assumed); assay: ELISA, coated CCN protein
T3 construct: also called human NOV (CCN3)
T3 sequence (looked up): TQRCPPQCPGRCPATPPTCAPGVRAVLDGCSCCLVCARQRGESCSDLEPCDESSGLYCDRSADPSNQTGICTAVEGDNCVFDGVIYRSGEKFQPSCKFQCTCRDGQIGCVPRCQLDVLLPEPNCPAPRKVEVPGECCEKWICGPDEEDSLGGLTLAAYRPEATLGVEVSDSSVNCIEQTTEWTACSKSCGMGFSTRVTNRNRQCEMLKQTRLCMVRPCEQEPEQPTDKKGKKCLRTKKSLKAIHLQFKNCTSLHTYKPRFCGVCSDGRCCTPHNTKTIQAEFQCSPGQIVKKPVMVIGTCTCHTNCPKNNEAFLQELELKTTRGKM
Method: (§1) Binding of muteins to closely related proteins of CTGF was tested by an ELISA assay. In detail, a 384-well plate suitable for fluorescence measurements (Greiner FLUOTRAC™ 600, black flat bottom, high-binding) was coated with 20 μl of human CTGF or the other members of the CCN protein family at a concentration of 1 μg/ml in PBS over night at 4° C. After washing with PBS with 0.05% Tween 20, wells were blocked with 100 μl blocking buffer containing 0.1% Tween 20 and 2% BSA (PBS-T/BSA) for 1 h at room temperature. 20 μl of serially diluted muteins starting at 1000 nM were incubated in PBS-T/BSA for 1 h at room temperature (RT).
(§2) The residual supernatants were discarded and 20 μl HRP-labeled anti-NGAL or anti-Strep-Tag antibody was added at a predetermined optimal concentration in PBS-T/BSA and incubated for 1 h at RT. After washing, 20 μl fluorogenic HRP substrate (QuantaBlu, Thermo) was added to each well, and the reaction was allowed to proceed for 2 to 60 minutes. The fluorescence intensity of every well on the plate was read using a fluorescence microplate reader (Tecan). When the signal for human CTGF approached saturation, the cross reactivity to the other proteins was assessed.

huWISP-3 = target: T4, huWISP-3 (human, UniProt O95389 24-354, limits assumed); assay: ELISA, coated CCN protein
T4 construct: also called human WISP-3 (CCN6)
T4 sequence (looked up): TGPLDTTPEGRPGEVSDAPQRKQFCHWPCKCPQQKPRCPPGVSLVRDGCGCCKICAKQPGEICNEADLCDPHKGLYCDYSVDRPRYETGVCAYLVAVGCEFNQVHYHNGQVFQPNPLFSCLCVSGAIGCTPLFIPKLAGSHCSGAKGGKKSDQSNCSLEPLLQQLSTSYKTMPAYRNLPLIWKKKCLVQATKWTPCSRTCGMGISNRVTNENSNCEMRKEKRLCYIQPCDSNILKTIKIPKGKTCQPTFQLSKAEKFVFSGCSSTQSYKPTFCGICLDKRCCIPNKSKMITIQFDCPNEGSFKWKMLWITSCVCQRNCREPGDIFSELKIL
Method: as §1, §2

huWISP-1 = target: T5, huWISP-1 (human, UniProt O95388 23-367, limits assumed); assay: ELISA, coated CCN protein
T5 construct: also called human WISP-1 (CCN4)
T5 sequence (looked up): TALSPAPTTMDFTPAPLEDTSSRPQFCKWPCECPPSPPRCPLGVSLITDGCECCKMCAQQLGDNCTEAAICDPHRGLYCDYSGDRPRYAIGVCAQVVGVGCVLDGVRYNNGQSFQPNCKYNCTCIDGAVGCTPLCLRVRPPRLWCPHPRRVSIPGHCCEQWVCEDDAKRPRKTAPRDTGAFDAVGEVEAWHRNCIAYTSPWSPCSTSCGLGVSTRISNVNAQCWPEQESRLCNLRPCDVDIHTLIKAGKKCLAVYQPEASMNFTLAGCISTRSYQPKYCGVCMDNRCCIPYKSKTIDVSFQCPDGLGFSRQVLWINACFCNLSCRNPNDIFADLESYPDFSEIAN
Method: as §1, §2

huWISP-2 = target: T6, huWISP-2 (human, UniProt O76076 24-250, limits assumed); assay: ELISA, coated CCN protein
T6 construct: also called human WISP-2 (CCN5)
T6 sequence (looked up): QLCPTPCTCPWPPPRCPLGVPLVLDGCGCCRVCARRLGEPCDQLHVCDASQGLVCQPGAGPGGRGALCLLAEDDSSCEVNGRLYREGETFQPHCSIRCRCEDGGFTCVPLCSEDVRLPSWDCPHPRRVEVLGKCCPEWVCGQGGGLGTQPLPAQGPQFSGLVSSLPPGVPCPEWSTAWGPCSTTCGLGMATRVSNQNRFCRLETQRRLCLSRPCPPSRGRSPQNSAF
Method: as §1, §2

huCYR61 = target: T7, huCYR61 (human, UniProt O00622 25-381, limits assumed); assay: ELISA, coated CCN protein
T7 construct: also called human CYR61 (CCN1)
T7 sequence (looked up): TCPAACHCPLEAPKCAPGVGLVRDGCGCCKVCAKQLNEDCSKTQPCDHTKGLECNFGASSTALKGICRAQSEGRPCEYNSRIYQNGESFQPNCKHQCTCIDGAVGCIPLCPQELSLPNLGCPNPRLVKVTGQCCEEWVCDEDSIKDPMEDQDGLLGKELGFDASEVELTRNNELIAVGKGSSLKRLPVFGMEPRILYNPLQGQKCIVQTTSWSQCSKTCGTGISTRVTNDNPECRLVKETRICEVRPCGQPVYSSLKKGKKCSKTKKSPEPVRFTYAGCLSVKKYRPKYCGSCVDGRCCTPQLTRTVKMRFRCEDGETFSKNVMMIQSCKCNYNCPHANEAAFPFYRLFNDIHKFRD
Method: as §1, §2

[3] = target: T8, CTGF expressed by TGF-β1-stimulated normal human lung fibroblasts (NHLFs) (human, UniProt P29279 27-349); assay: immunofluorescence staining of the lipocalin scaffold (AlexaFluor647 secondary antibody) on NHLFs incubated 24 h with the construct and 10 ng/ml TGF-β1; signal normalised to the NGAL control
T8 construct: whole, on cells; Cells grown under conditions that facilitate pseudo-3D extracellular matrix deposition; also called CTGF-expressing NHLFs
T8 sequence (looked up): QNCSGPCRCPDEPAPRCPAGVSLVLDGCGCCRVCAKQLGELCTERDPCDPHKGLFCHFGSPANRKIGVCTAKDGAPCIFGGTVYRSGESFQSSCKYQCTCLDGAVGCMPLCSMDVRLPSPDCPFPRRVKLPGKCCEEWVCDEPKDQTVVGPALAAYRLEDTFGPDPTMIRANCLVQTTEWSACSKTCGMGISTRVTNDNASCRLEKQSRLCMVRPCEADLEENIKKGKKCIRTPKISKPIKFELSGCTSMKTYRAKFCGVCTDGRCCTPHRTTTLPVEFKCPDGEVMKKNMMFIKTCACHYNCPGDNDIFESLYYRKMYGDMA

T1 sequence (chain, as listed by the source limits assumed): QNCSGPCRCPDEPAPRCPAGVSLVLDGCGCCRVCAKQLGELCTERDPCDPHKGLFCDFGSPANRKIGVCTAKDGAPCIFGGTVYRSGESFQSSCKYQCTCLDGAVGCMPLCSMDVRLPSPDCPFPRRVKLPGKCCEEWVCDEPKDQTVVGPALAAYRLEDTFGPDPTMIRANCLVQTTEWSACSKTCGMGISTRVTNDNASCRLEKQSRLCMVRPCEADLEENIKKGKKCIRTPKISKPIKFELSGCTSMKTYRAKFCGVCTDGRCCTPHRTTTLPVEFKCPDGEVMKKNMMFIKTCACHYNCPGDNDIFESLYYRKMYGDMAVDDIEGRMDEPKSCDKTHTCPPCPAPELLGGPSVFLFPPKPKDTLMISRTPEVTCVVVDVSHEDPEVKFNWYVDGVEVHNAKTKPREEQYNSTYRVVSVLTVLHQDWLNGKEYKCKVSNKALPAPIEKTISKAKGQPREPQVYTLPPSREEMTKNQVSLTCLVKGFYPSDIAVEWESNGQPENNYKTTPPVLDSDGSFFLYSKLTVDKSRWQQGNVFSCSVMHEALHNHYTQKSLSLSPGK

- Kd [1]: 0.514 nM
- koff [1]: 0.000149 s⁻¹
- kon [1]: 290000 M⁻¹ s⁻¹
- binding result [2]: binds
B1: lipocalin mutein of SEQ ID NO: 6 (designed binder)
chain: QDSTSDLIPAPPLSKVPLQQNFQDNQFQGKWYVVGRAGNNQLREDKSPPKMWATIYELKEDKSYDVTHVHFSTKKCRYIIDTFVPGSQPGEFTAGAIKSGPGLTSPLVRVVSTNYNQHAMVFFKWVTQNREWFTITLYGRTKELTSELKENFIRFSKSLGLPENHIVFPVPIDQCIDG
notes: also called hNGAL mutein; not shown: C-terminal His-tag

- Kd [1]: 0.077 nM
- koff [1]: 9.42e-06 s⁻¹
- kon [1]: 122000 M⁻¹ s⁻¹
- binding result [3]: binds
B2: lipocalin mutein of SEQ ID NO: 23 (designed binder)
chain: QDSTSDLIPAPPLSKVPLQQNFQDNQFQGKWYVVGVAGNAILRPDKQPAKMFATIYELKEDKSYDVTSVRFEAKSCKYTIKTFVPGSQPGEFTSGQIKSAPGQTSTLVRVVSTNYNQHAMVFFKHVSQNREIFVITLYGRTKELTSELKENFIRFSKSLGLPENHIVFPVPIDQCIDG
notes: also called hNGAL mutein
- binding result (huNOV): no binding (tested: dilutions starting at 1000 nM)
- binding result (huWISP-3): no binding (tested: dilutions starting at 1000 nM)
- binding result (huWISP-1): no binding (tested: dilutions starting at 1000 nM)
- binding result (huWISP-2): no binding (tested: dilutions starting at 1000 nM)
- binding result (huCYR61): no binding (tested: dilutions starting at 1000 nM)
